Key:
Assay in all cases: Crosslinking/co-immunoprecipitation/mass spectrometry (TMT quantitative proteomics) to identify irisin receptors
Format in all cases: binding
[1] = molecular target: T1, MLO-Y4 cell surface proteins (Mus musculus, UniProt E9Q557); conditions: co-precipitated protein Dsp (DESP_MOUSE)
T1 construct: endogenous in cells; host or cells: MLO-Y4
How it was run: (§1)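 Mouse MLO-Y4 cells were switched to serum-free FreeStyle medium for 4 h, chilled, then exposed to 10 nM His-tagged irisin (or adipsin as control) for 20 min. Cells were crosslinked with 1.5 mM DTSSP (30 min, ice), and bound proteins were pulled down on Ni-NTA and eluted with 250 mM imidazole. Eluates were separated by SDS-PAGE, trypsin-digested in gel, TMT 6-plex labelled and quantified by MS3-based LC-MS/MS on an Orbitrap Fusion Lumos.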

[2] = molecular target: T2, MLO-Y4 cell surface proteins (Mus musculus, UniProt P09671); conditions: co-precipitated protein Sod2 (SODM_MOUSE)
T2 construct: endogenous in cells; host or cells: MLO-Y4
T2 sequence (P09671 25-222): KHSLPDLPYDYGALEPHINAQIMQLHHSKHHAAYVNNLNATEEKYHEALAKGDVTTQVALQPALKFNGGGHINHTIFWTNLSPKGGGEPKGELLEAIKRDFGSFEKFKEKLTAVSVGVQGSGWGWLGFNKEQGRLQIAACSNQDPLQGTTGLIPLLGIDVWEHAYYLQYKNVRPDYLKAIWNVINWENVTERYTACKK
How it was run: as §1

[3] = molecular target: T3, MLO-Y4 cell surface proteins (Mus musculus, UniProt Q8K273); conditions: TMT ratio, Mmgt1 Membrane magnesium transporter 1
T3 construct: endogenous in cells; host or cells: MLO-Y4
T3 sequence (Q8K273 1-131): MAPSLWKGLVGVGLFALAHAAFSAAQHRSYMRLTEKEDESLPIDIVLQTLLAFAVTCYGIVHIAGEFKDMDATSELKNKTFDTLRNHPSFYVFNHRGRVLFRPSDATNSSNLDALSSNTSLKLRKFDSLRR
How it was run: as §1

[4] = molecular target: T4, MLO-Y4 cell surface proteins (Mus musculus, UniProt Q8R1I1); conditions: co-precipitated protein Uqcr10 (QCR9_MOUSE)
T4 construct: endogenous in cells; host or cells: MLO-Y4
T4 sequence (Q8R1I1 1-64): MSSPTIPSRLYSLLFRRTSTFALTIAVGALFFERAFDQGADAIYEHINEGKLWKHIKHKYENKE
How it was run: as §1

[5] = molecular target: T5, MLO-Y4 cell surface proteins (Mus musculus, UniProt Q8VCI5); conditions: co-precipitated protein Pex19 (PEX19_MOUSE)
T5 construct: endogenous in cells; host or cells: MLO-Y4
T5 sequence (Q8VCI5 1-299): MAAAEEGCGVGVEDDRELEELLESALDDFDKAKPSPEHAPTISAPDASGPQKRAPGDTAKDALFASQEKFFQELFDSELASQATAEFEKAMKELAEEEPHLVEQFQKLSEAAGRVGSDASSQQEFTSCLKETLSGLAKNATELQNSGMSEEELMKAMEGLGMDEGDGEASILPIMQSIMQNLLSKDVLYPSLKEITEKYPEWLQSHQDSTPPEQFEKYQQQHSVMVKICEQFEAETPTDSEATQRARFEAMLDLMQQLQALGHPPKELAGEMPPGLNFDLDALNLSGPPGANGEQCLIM
How it was run: as §1

[6] = molecular target: T6, MLO-Y4 cell surface proteins (Mus musculus, UniProt Q9WTP6); conditions: co-precipitated protein Ak2 (KAD2_MOUSE)
T6 construct: endogenous in cells; host or cells: MLO-Y4
How it was run: as §1

T1 sequence (E9Q557 whole entry): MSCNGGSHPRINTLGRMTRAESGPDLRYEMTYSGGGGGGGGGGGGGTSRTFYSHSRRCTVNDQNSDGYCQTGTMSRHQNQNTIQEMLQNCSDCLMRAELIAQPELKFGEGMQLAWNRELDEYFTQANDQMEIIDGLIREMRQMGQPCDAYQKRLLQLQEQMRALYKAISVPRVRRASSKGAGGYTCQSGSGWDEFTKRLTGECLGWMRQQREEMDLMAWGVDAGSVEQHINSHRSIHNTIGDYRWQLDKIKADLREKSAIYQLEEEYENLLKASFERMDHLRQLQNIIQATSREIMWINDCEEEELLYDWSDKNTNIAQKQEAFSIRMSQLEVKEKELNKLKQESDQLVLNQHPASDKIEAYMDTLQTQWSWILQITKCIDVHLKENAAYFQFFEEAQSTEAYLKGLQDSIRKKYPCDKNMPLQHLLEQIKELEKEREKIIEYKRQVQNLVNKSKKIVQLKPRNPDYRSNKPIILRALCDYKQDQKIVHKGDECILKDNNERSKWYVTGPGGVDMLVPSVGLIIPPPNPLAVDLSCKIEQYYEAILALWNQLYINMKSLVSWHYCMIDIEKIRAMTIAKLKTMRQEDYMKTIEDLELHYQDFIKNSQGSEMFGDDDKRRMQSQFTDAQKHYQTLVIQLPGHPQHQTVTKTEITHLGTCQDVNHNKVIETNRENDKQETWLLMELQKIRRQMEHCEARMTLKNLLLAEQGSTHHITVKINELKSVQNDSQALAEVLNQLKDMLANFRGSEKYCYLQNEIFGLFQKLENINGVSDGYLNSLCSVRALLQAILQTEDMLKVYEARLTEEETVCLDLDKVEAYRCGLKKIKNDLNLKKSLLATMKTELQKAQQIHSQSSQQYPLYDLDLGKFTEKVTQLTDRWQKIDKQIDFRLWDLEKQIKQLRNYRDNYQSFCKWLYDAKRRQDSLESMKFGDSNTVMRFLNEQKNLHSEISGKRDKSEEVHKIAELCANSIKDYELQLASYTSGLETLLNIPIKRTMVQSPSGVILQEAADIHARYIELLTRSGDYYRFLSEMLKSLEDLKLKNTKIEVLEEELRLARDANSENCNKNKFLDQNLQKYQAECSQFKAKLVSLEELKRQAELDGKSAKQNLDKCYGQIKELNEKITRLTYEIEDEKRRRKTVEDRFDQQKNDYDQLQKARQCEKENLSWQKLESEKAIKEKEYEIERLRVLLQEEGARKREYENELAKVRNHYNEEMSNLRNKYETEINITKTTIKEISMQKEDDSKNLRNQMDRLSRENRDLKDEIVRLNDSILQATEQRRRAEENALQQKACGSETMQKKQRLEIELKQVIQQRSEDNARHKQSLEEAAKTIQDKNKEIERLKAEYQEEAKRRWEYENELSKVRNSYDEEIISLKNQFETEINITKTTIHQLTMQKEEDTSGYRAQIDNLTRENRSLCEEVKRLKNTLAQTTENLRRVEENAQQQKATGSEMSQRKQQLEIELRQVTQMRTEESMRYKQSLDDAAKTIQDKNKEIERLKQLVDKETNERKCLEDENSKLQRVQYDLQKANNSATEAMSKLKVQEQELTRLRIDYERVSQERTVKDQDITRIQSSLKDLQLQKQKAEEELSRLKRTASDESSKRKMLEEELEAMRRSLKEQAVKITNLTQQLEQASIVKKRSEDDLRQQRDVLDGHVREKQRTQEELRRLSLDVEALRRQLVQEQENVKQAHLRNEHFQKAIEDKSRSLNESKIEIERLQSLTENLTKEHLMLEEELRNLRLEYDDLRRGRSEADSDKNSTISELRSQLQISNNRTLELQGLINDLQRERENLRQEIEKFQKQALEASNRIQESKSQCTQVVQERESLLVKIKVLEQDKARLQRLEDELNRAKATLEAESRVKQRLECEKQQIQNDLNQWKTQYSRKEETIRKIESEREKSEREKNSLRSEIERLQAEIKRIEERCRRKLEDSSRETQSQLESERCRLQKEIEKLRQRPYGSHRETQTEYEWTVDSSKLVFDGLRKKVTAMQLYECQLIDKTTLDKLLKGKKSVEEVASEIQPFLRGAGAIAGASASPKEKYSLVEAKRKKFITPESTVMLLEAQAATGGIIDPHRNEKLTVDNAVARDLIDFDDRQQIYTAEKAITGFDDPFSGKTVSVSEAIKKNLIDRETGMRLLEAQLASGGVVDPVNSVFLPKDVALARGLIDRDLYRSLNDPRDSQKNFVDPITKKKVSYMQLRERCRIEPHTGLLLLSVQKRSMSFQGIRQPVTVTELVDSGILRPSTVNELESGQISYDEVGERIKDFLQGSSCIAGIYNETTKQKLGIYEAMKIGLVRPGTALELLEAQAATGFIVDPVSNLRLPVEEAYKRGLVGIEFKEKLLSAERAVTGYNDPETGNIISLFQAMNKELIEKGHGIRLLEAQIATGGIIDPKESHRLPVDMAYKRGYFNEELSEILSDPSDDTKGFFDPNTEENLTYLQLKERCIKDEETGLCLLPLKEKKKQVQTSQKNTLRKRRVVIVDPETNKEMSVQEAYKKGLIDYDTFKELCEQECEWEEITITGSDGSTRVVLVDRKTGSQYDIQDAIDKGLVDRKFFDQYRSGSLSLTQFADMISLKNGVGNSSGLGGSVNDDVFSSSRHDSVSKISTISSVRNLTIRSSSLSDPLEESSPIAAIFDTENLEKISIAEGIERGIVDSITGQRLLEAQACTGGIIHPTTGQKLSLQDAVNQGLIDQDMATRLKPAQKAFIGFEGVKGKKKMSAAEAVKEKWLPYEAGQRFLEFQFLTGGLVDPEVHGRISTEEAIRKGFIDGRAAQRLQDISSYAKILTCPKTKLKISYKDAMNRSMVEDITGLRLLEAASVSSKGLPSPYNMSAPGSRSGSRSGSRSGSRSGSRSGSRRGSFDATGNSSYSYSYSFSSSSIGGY

B1: irisin: secreted cleaved form of FNDC5; recombinant human/mouse irisin with C-terminal his tag produced in HEK293 cells (protein)
chain: DSPSAPVNVTVRHLKANSAVVSWDVLEDEVVIGFAISQQKKDVRMLRFIQEVNTTTRSCALWDLEEDTEYIVHVQAISIQGQSPASEPVLFKTPREAEKMASKNKDEVTMKE
modifications: left off: small tags and cut ends
notes: secreted cleaved form of FNDC5; recombinant human/mouse irisin with C-terminal his tag produced in HEK293 cells
B1 was tested, and the TMT signal-to-noise ratio [1] was 2.707, the “irisin/adipsin TMT signal-to-noise ratio” value [1] was 0.034 and the TMT signal-to-noise ratio [2] was 472.133. For the same molecule, the “irisin/adipsin TMT signal-to-noise ratio” value [2] was 0.458, the irsin/adipsin [3] was 2.94 and the TMT signal-to-noise ratio [4] was 125.477. For the same molecule, the “irisin/adipsin TMT signal-to-noise ratio” value [4] was 0.516, the TMT signal-to-noise ratio [5] was 23.3696 and the “irisin/adipsin TMT signal-to-noise ratio” value [5] was 0.386. The TMT signal-to-noise ratio [6] was 61.9776 and the “irisin/adipsin TMT signal-to-noise ratio” value [6] was 0.546.

From US20210063414A1, “METHODS FOR PREVENTING AND/OR TREATING BONE LOSS CONDITIONS BY MODULATING IRISIN” (Dana-Farber Cancer Institute, Inc., priority 2018, published 2021)
